From patent US20170204167A1

How the values were obtained:
[1] = biological target: HA of H3N2 A/Brisbane/10/07 (influenza A virus H3N2 A/Brisbane/10/07); experiment: ELISA on HA
[2] = biological target: HA of H3N2 A/Brisbane/10/07 (influenza A virus H3N2 A/Brisbane/10/07); experiment: ELISA on recombinant or purified HA
[3] = biological target: HA of H3N2 A/New York/55/04 (influenza A virus H3N2 A/New York/55/04); experiment: ELISA on recombinant or purified HA
[4] = biological target: HA of H3N2 A/Wyoming/3/03 (influenza A virus H3N2 A/Wyoming/3/03); experiment: ELISA on recombinant or purified HA
[5] = biological target: HA of H1N1 A/Brisbane/59/07 (influenza A virus H1N1 A/Brisbane/59/07); experiment: ELISA on recombinant or purified HA
[6] = biological target: HA of B/Ohio/1/05 (influenza B virus B/Ohio/1/05); experiment: ELISA on HA

Binder	Binding to HA by ELISA (% of subtype specific control antibodies) [1] [%]	EC50 [2] [µg/mL]	EC50 [3] [µg/mL]	EC50 [4] [µg/mL]	EC50 [5] [µg/mL]	EC50 [6] [µg/mL]
FI28 variant 1 (antibody, V domains shown) VH: EVQLVESGGGAVQPGESLKLSCAASGFTFSNYGMHWVRQAPGKGLEWVAVISYDGSNKYYADSVKGRFTISRDNSKDTLYLQMNSLRAEDTALFYCAKERPLRLLRYFDWLSGGANDYWGQGTLVTVSS VL: DIVMTQSPDSLAVSLGERATINCKSSQSVLYSSNNKNYLAWYQQKPGQPPKLLIDWASTRESGVPDRFSGSGSGTDFTLTISNLQVEDVAVYYCQQYYRSPSFGQGTKLEIK	1.3					
FI6 variant 2 (antibody, V domains shown) VH: QVQLVQSGGGVVQPGRSLRLSCVASGFTFSTYAMHWVRQAPGRGLEWVAVISYDGNYKYYADSVKGRFSISRDNSNNTLHLEMNTLRTEDTALYYCAKDSQLRSLLYFEWLSQGYFDPWGQGTLVTVTS VL: DIQMTQSPDSLAVSLGARATINCKSSQSVTFNYKNYLAWYQQKPGQPPKVLIYWASARESGVPDRFSGSGSGTDFTLTISSLQAEDVAVYYCQQHYRTPPTFGQGTKVEIK	68.5	0.041	0.032	0.019	0.015	> 20
